Data taken from US20230174635A1.

Molecular target: BMP4/7 heterodimer (human) (UniProt P12644)
Assay: cell-based or functional assay

Chain of BMP4/7 heterodimer (human) (P12644 293-408, chain 1 of 2): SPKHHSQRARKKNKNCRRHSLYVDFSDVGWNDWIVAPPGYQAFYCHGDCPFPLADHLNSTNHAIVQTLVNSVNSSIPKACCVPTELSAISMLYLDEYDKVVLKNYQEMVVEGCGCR
Chain of BMP4/7 heterodimer (human) (P18075 293-431, chain 2 of 2, further chain): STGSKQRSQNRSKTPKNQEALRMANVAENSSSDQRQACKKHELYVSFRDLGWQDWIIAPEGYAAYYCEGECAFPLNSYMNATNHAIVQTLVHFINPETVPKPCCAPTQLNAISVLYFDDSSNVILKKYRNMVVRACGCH

IC50 (geometric mean, N=2), inhibition of BMP4/7 signalling, Hek-Id1 reporter gene assay: 1.6 nM
Substance: Gremlin 1 Full length (from UniProt O60565 25-184) (ligand)
